Assay results as given in the supplement of paper PMC11246515.
± gives the standard deviation of the averaged measurements.

Experiment: total protein half-life in vivo (active degradation + dilution); higher = more stable protein
[1] = E. coli NCM3722 delta-clpP delta-lon delta-hslV, growth: N-lim chemostat, doubling time 6 h
[2] = wild type E. coli NCM3722, growth: C-lim chemostat, doubling time 3 h
[3] = wild type E. coli NCM3722, growth: C-lim chemostat, doubling time 6 h
[4] = wild type E. coli NCM3722, growth: N-lim chemostat, doubling time 6 h
[5] = E. coli NCM3722 delta-clpP, growth: N-lim chemostat, doubling time 6 h
[6] = E. coli NCM3722 delta-hslV, growth: N-lim chemostat, doubling time 6 h
[7] = E. coli NCM3722 delta-lon, growth: N-lim chemostat, doubling time 6 h
[8] = E. coli NCM3722 delta-smpB, growth: N-lim chemostat, doubling time 6 h
[9] = wild type E. coli NCM3722, growth: C-lim chemostat, doubling time 12 h
[10] = wild type E. coli NCM3722, growth: N-lim chemostat, doubling time 12 h
[11] = wild type E. coli NCM3722, growth: P-lim chemostat, doubling time 6 h
[12] = wild type E. coli NCM3722, growth: P-lim chemostat, doubling time 12 h

Sequence | total protein half-life in vivo [1] [h] | total protein half-life in vivo [2] [h] | total protein half-life in vivo [3] [h] | total protein half-life in vivo [4] [h] | total protein half-life in vivo [5] [h] | total protein half-life in vivo [6] [h] | total protein half-life in vivo [7] [h] | total protein half-life in vivo [8] [h] | total protein half-life in vivo [9] [h] | total protein half-life in vivo [10] [h] | total protein half-life in vivo [11] [h] | total protein half-life in vivo [12] [h]
MKLIITEDYQEMSRVAAHHLLGYMSKTRRVNLAITAGSTPKGMYEYLTTLVKGKPWYDNCYFYNFDEIPFRGKEGEGVTITNLRNLFFTPAGIKEENIQKLTIDNYREHDQKLAREGGLDLVVLGLGADGHFCGNLPNTTHFHEQTVEFPIQGEMVDIVAHGELGGDFSLVPDSYVTMGPKSIMAAKNLLIIVSGAGKAQALKNVLQGPVTEDVPASVLQLHPSLMVIADKAAAAELALG | 5.36 ± 0.6 | 2.47 | 3.24 | 2.68 |  |  |  |  |  |  |  | 
MNNIAPQSPVMRRLTLQDNPAIARVIRQVSAEYGLTADKGYTVADPNLDELYQVYSQPGHAYWVVEYEGEVVGGGGIAPLTGSESDICELQKMYFLPAIRGKGLAKKLALMAMEQAREMGFKRCYLETTAFLKEAIALYEHLGFEHIDYALGCTGHVDCEVRMLREL | 4.53 ± 0.45 | 2.95 ± 0.76 | 5.11 ± 0.59 | 4.37 ± 0.26 | 3.93 ± 0.64 | 3.54 ± 0.28 | 3.77 ± 0.61 | 3.89 ± 0.23 | 6.43 ± 0.74 | 7.32 ± 0.57 | 5 ± 0.34 | 10.6 ± 2.3
MSQVQFSHNPLFCIDIIKTYKPDFTPRVAFILGSGLGALADQIENAVAISYEKLPGFPVSTVHGHAGELVLGHLQGVPVVCMKGRGHFYEGRGMTIMTDAIRTFKLLGCELLFCTNAAGSLRPEVGAGSLVALKDHINTMPGTPMVGLNDDRFGERFFSLANAYDAEYRALLQKVAKEEGFPLTEGVFVSYPGPNFETAAEIRMMQIIGGDVVGMSVVPEVISARHCDLKVVAVSAITNMAEGLSDVKLSHAQTLAAAELSKQNFINLICGFLRKIA | 5.56 ± 0.68 | 2 |  |  |  |  |  | 1.93 ± 0.26 | 6.43 |  | 2.34 | 5.82
MQQKMIQFSGDVSLPAVGQGTWYMGEDASQRKTEVAALRAGIELGLTLIDTAEMYADGGAEKVVGEALTGLREKVFLVSKVYPWNAGGQKAINACEASLRRLNTDYLDLYLLHWSGSFAFEETVAAMEKLIAQGKIRRWGVSNLDYADMQELWQLPGGNQCATNQVLYHLGSRGIEYDLLPWCQQQQMPVMAYSPLAQAGRLRNGLLKNAVVNEIAHAHNISAAQVLLAWVISHQGVMAIPKAATIAHVQQNAAVLEVELSSAELAMLDKAYPAPKGKTALDMV | > 8 | 2.9 ± 0.38 | 5.61 ± 0.92 |  |  |  |  |  | 8.61 ± 1.4 |  | 5.03 ± 0.38 | 9.97 ± 0.73
METLIAISRWLAKQHVVTWCVQQEGELWCANAFYLFDAQKVAFYILTEEKTRHAQMSGPQAAVAGTVNGQPKTVALIRGVQFKGEIRRLEGEESDLARKAYNRRFPVARMLSAPVWEIRLDEIKFTDNTLGFGKKMIWLRDSGTEQA | 5.46 ± 0.32 |  | 6.11 ± 0.22 | 5.11 ± 0.18 | 5.48 ± 0.64 |  |  | 4.81 ± 0.52 | 13.5 ± 1.2 | 9.39 ± 0.75 | 5.48 ± 1.1 | 12.5 ± 0.68
MQKKSIYVAYTGGTIGMQRSEQGYIPVSGHLQRQLALMPEFHRPEMPDFTIHEYTPLMDSSDMTPEDWQHIAEDIKAHYDDYDGFVILHGTDTMAYTASALSFMLENLGKPVIVTGSQIPLAELRSDGQINLLNALYVAANYPINEVTLFFNNRLYRGNRTTKAHADGFDAFASPNLPPLLEAGIHIRRLNTPPAPHGEGELIVHPITPQPIGVVTIYPGISADVVRNFLRQPVKALILRSYGVGNAPQNKAFLQELQEASDRGIVVVNLTQCMSGKVNMGGYATGNALAHAGVIGGADMTVEATLTKLHYLLSQELDTETIRKAMSQNLRGELTPDD [P0A962] | 5.54 ± 0.6 | 3.18 ± 0.034 | 5.81 ± 0.83 | 5.74 ± 0.28 | 5.31 ± 0.36 | 6.03 ± 0.21 | 5.69 ± 0.17 | 5 ± 0.11 | 12 ± 1.2 | 10.9 ± 0.4 | 5.81 ± 0.6 | 11.5 ± 1.4
MDAKQTRQGVLLALAAYFIWGIAPAYFKLIYYVPADEILTHRVIWSFFFMVVLMSICRQWSYLKTLIQTPQKIFMLAVSAVLIGGNWLLFIWAVNNHHMLEASLGYFINPLVNIVLGMIFLGERFRRMQWLAVILAICGVLVQLWTFGSLPIIALGLAFSFAFYGLVRKKIAVEAQTGMLIETMWLLPVAAIYLFAIADSSTSHMGQNPMSLNLLLIAAGIVTTVPLLCFTAAATRLRLSTLGFFQYIGPTLMFLLAVTFYGEKPGADKMVTFAFIWVALAIFVMDAIYTQRRTSK |  |  |  |  |  |  |  |  |  | 7.87 |  | 
